Molecular target: recombinant His-Mdm2 (UniProt P23804 1-489)
Experiment: pull-down

recombinant His-Mdm2, sequence (P23804 whole entry): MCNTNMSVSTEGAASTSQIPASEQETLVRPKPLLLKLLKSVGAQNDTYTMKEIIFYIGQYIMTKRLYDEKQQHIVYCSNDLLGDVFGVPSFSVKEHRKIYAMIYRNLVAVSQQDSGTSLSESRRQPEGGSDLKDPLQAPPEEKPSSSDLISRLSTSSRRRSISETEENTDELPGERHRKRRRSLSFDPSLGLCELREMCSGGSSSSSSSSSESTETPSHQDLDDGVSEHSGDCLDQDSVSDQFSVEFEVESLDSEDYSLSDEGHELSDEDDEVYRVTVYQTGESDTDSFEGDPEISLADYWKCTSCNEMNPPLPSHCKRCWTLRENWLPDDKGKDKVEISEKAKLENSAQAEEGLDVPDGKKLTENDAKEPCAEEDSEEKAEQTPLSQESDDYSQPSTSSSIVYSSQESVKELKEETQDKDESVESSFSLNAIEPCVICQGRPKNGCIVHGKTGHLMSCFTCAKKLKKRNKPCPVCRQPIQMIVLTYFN

B1: recombinant GST-EF1α (natural protein)
chain: GKEKTHINIVVIGHVDSGKSTTTGHLIYKCGGIDKRTIEKFEKEAAEMGKGSFKYAWVLDKLKAERERGITIDISLWKFETSKYYVTIIDAPGHRDFIKNMITGTSQADCAVLIVAAGVGEFEAGISKNGQTREHALLAYTLGVKQLIVGVNKMDSTEPPYSQKRYEEIVKEVSTYIKKIGYNPDTVAFVPISGWNGDNMLEPSANMPWFKGWKVTRKDGNASGTTLLEALDCILPPTRPTDKPLRLPLQDVYKIGGIGTVPVGRVETGVLKPGMVVTFAPVNVTTEVKSVEMHHEALSEALPGDNVGFNVKNVSVKDVRRGNVAGDSKNDPPMEAAGFTAQVIILNHPGQISAGYAPVLDCHTAHIACKFAELKEKIDRRSGKKLEDGPKFLKSGDAAIVDMVPGKPMCVESFSDYPPLGRFAVRDMRQTVAVGVIKAVDKKAAGAGKVTKSAQKAQKAK
stoichiometry N: ~1

Source: publication PMC3530171 (Cell, 2012)
